From article PMC4516936 (Toxins, 2015)

B1: CTA2/CTB5 complex (complex)
chain 1: MSNTCDEKTQSLGVKFLDEYQSKVKRQIFSGYQSDIDTHNRIKDEL
chain 2: TPQNITDLCAEYHNTQIYTLNDKIFSYTESLAGKREMAIITFKNGAIFQVEVPGSQHIDSQKKAIERMKDTLRIAYLTEAKVEKLCVWNNKTPHAIAAISMAN
notes: copies: + 5

What was measured:
[1] = biological target: cholera toxin A2 CTA2 (Vibrio cholerae) (UniProt P01555); assay: SPR; conditions: cited from earlier work
[2] = biological target: cholera toxin A1 subunit (CTA1), reduced, free (UniProt P01555 19-212); assay: SPR; conditions: both partners purified
Chain of cholera toxin A1 subunit (CTA1), reduced, free (P01555 19-212): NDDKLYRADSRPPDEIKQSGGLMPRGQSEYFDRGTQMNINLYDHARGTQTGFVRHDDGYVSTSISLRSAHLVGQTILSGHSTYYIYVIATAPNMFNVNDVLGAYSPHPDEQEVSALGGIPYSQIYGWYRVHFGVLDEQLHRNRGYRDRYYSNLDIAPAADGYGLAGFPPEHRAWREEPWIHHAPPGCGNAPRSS

Molecule | Kd [1] | kon [2]
cholera toxin A1 CTA1 (from UniProt P01555) | 53 nM | –
B1 | – | 521 M⁻¹ s⁻¹
